Laboratory results: patent publication US20160108113A1 (Genentech, published 2016)
Where “and” joins values, the source holds several entries; their conditions need not be identical. Equal values may be shown once.

T1: synthetic peptide corresponding to amino acid residues 105-123 in human α-synuclein (human)
T1 construct: also called unlabeled peptide
T1 peptide: EGAPQEGILEDMPVDPDNE

T2: peptide corresponding to amino acid residues 37-51 of human α-synuclein (human)
T2 construct: One of a series of 15-mer peptides spanning the length of human α-synuclein; also called 15-mer peptide
T2 peptide: VLYVGSKTKEGVVHG


Columns and labels:
[1] = target: 13C/15N labeled recombinant human α-synuclein (human, UniProt P37840 1-140); experiment: NMR 2D HSQC-TROSY, 1:0.5 α-synuclein:Fab; cutoff for epitope residues was attenuation above 50
Protocol: (§1) NMR was used to identify the binding epitope of anti-α-synuclein monoclonal antibody 13F3 and of anti-α-synuclein monoclonal antibody 1F7 as follows. NMR samples were prepared by adding a solution of ¹³C/¹⁵N labeled recombinant human α-synuclein in PBS […] at a concentration of 1 mg/ml (71 μM) purchased from Giotto Biotech (Sesto Fiorentino (FI), Italy) to a volume of 180 μl into 3 mm NMR tubes. Complex formation of the antibody bound form of α-synuclein was achieved by addition of an 18 mg/ml (120 μM) solution of antibody 13F3 and 17.8 mg/ml (118 μM) of antibody 1F7 in PBS (pH 7.2) in aliquots of 9 μl to the NMR sample. 2D HSQC-TROSY spectra were recorded at increasing concentration of Fab and the proton-amide cross peak intensity monitored in CCPN. (See Vranken et al (2005) Proteins 59:687-696.) All spectra were recorded at calibrated 300 K on a Bruker 600 MHz spectrometer using a 5 mm TXI cryo-probe. The final molar ratio used for data analysis of 1:0.5 α-synuclein:Fab. All data was processed using Topspin 3.1 (Bruker Karlsruhe, Germany) and visualized and analyzed using CCPN. Samples of ¹³C/¹⁵N labeled α-synuclein were measured in PBS (pH 7.2) buffer at 1 mg/ml corresponding to a concentration of 71 μM. […] Signal intensities were evaluated in CCPN. The signal errors were extrapolated in CCPN based on the signal to noise of the recorded data. […]

[2] = target: T1, synthetic peptide corresponding to …; experiment: NMR competition, unlabeled peptide added to the Fab-α-synuclein complex
Protocol: as §1

[3] = target: T3, recombinant human α-synuclein (human, UniProt P37840 1-140); experiment: SPR Biacore T200, antibody captured on murine IgG capture chip, α-synuclein in solution, steady-state analysis, 25 C, Expt A
Protocol: (§2) Monovalent affinities of anti-α-synuclein antibodies 13F3 and 1F7 for human α-synuclein were assessed using Surface Plasmon Resonance in a Biacore T200 instrument. These experiments utilized an antibody capture format where the test antibody was immobilized by binding the test antibody to a chip pre-coated with a murine IgG capture reagent and subsequently allowed to bind α-synuclein protein in solution.
(§3) A murine IgG capture chip was prepared using the GE murine IgG capture kit according to the manufacturer's instructions. Briefly, a Series S CM5 sensor chip was activated with a mixture of EDC/NHS before exposure to a solution of capture antibody in a 10 mM sodium acetate (pH 5.0) buffer. Remaining covalent attachment sites were blocked with ethanolamine.
(§4) To assess binding, anti-α-synuclein monoclonal antibody 13F3 and anti-α-synuclein monoclonal antibody 1F7 were captured using a 1 μg/ml solution in running buffer (1×HBSP; 10 mM HEPES, pH 7.4, 150 mM NaCl, 0.05% Tween20) at a flow rate of 10 μl/min. Binding of human α-synuclein in solution was monitored at six different concentrations (a three-fold dilution series spanning concentrations from single-digit nanomolar to greater than 1 μM) and one replicate concentration, at a flow rate of 30 μl/min. […]

[4] = target: T3, recombinant human α-synuclein; experiment: SPR Biacore T200, antibody capture format, steady-state analysis (text summary of Table 2)
Protocol: as §2, §3, §4

[5] = target: T3, recombinant human α-synuclein; experiment: SPR Biacore T200, antibody captured on murine IgG capture chip, α-synuclein in solution, steady-state analysis, 25 C, Expt B
Protocol: as §2, §3, §4

[6] = target: T2, peptide corresponding to amino acid …; experiment: peptide mapping with a series of 15-mer peptides

NMR signal attenuation at isoleucine 112 [1] [fold]	binding result [2]	Kd [3]	Kd [4]	Kd [5] [nM]	binding result [6]	Binder
1.79	binds					anti-α-synuclein monoclonal antibody 13F3 Fab (Fab, V domains shown, also called 13F3 Fab fragment) VH: QVQLQQSGAELVKPGASVKMSCKASGYTFTSYWITWVKKRPGQGLEWIGDISPGSGSTHYNEKFKSKATLTVDTSSSTAYIQLFSLTSEDSAVYYCAIAQTTFAYWGQGTLVTVSA VL: DVLMTQTPLSLPVSLGDQASISCRSSQSIVHSNGNTYLEWYLQKPGQSPKLLIYKVSNRFSGVPDRFSGSGSGTDFTLKISRVEAEDLGVYYCFQGSHVPPTFGGGTRLEIK
		410 nM and 490 nM	450 nM and 470 nM	460		anti-α-synuclein monoclonal antibody 13F3 (mIgG2a) (antibody, V domains shown, Mouse monoclonal, mIgG2a, expressed recombinantly in 293 cells) VH: QVQLQQSGAELVKPGASVKMSCKASGYTFTSYWITWVKKRPGQGLEWIGDISPGSGSTHYNEKFKSKATLTVDTSSSTAYIQLFSLTSEDSAVYYCAIAQTTFAYWGQGTLVTVSA VL: DVLMTQTPLSLPVSLGDQASISCRSSQSIVHSNGNTYLEWYLQKPGQSPKLLIYKVSNRFSGVPDRFSGSGSGTDFTLKISRVEAEDLGVYYCFQGSHVPPTFGGGTRLEIK
		130 nM	180 nM	160	binds	anti-α-synuclein monoclonal antibody 1F7 (mIgG2a) (antibody, V domains shown, Mouse monoclonal, mIgG2a, expressed recombinantly in 293 cells) VH: EVQLQQSGAELVKPGASVKLSCTASGFNIKDYYMDWVKQRTEQGLEWIARIDPEDGETKYAPKFQGKATITADTSSNTAYLQLSSLTSEDTAVYYCRVFDYWGQGTTLTVSS VL: not shown
